Source: patent publication US20180135060A1 (OURO FINO SAUDE ANIMAL LTDA, published 2018)

Target: T1, Rrp4 protein of the Pyrococcus abyssi exosome, as encoded by pMRKA-EXO (Pyrococcus abyssi, UniProt Q9V120 2-263)
T1 construct: Co-expressed in E. coli; also called PAB0419
T1 sequence: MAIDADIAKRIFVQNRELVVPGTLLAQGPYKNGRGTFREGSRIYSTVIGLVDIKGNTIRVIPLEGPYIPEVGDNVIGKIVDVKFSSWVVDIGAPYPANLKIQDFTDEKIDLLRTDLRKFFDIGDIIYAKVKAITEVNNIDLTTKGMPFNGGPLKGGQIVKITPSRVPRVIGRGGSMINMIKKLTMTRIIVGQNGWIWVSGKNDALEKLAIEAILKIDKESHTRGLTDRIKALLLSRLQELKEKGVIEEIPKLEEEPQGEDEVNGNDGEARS
Assay: co-expression in E. coli and co-purification, gel (FIG. 11)

B1: Rrp41 protein of the Pyrococcus abyssi exosome, as encoded by pMRKA-EXO (R89T, K91S) (other)
chain: MATRAEKPEGLKLIDENGRRIDGRKKYELRPIKMEVGVLKNANGSAYIEWGKNKIIAAVYGPRELHPKHLQRPDRAILRVRYNMAPFSVEETKSPGPDRRSIEISKVIKGALEPALILEMFPRTAIDVFIEVLQADAGTRVAGITAASLALADAGIPMRDLVAACAAGKIEGEIVLDLNKEEDNYGEADVPVAIMPLKNDITLLQMDGYLTKDEFIEAVKLAIKGAKAVYQKQREALKEKYLKIAQEVEGS
notes: also called PAB0420
- binding result: binds
